According to US20250326838A1 (CSPC MEGALITH BIOPHARMACEUTICAL, published 2025):
Positions count from the first letter of the chain named.

T1: Siglec15-ECD-His (human, UniProt Q6ZMC9 20-263)
T1 construct: Human Siglec15 (Uniprot Q6ZMC9) extracellular domain with 7 His, expressed in Hek293F; also called Sigle15-ECD-His protein; Siglec15-His protein
T1 sequence: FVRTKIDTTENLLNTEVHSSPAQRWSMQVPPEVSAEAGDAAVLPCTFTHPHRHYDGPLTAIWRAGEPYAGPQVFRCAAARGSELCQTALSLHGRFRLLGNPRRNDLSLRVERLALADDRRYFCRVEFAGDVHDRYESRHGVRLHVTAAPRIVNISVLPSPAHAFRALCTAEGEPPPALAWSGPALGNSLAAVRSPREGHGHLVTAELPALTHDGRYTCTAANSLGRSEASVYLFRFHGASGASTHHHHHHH

T2: His-tagged cynomolgus monkey Siglec15 protein (cynomolgus monkey, UniProt A0A2K5UY47 20-262)
T2 construct: not shown: His tag
T2 sequence: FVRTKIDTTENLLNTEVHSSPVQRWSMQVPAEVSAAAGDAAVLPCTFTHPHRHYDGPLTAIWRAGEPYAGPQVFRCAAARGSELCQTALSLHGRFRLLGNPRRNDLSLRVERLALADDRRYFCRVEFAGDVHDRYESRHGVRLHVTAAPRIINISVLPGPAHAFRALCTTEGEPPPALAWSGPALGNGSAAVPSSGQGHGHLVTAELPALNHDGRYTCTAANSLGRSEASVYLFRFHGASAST

B1: 1-7F4 monoclonal antibody (antibody, V domains shown)
VH: EVQLQQSGPELVKPGASVKMSCKASGYTFTTYVMHWVKQKPGQGLEWIGYINPYNDKTKYNEKFKGKATLTSDKSSSTAYMEVSRLTSEDSAVYYCGSGYDAMDYWGQGTSVTVSS
VL: DIQMTQSPASLSVSVGETVTITCRASENIYSHLAWYQQKQGKSPQLLIYSATNLADGVPSRFNGSGSGTQYSLKINSLQSEDFGSYYCQHFWGTPWTFGGGTKLEIK
B2: 1-15D1 monoclonal antibody (antibody, V domains shown)
VH: B1 VH with K57N, V83L, R85S
VL: B1 VL with T5A, A25T, I48V
B3: 1-15D1-IgG1 human-mouse chimeric anti-Siglec15 antibody (antibody, V domains shown)
VH: B1 VH with K57N, V83L, R85S
VL: B1 VL with T5A, A25T, I48V
B4: 14A7 monoclonal antibody (antibody, V domains shown)
VH: DVQLQESGPGLVKPSQSLSLTCTVTGYSITSDFAWNWIRQFPGNKLEWMGYIRFSGSTTYKPTLKSRISITRDTSKNQFFLQLNSVTTEDSATYYCAREDYDGLFDYWGQGTTLTVTS
VL: DVLMTQTPLSLPVSLGDHASISCRSSQTILHSNGNTYLDWYLQKPGQSPKLLIYKVSNRFSGVPDRFSGSGSGTDFTLKISRVEAEDLGVYYCFQGSHVPYTFGGGTKLEIK
B5: 1-10E5 monoclonal antibody (antibody, V domains shown)
VH: DVKLVESGGGLVKPGGSLKLSCVVSGLTFSRYTMSWVRQTPEKRLEWVATISSGGNSTYYPDSVKGRFTISRDDAKDTLYLQMSSLKSEDTAMYYCTNYGYFFDYWGQGTTLTVSS
VL: DIQMTQSPASLSASVGETVTITCRASENIYSFLAWYQQKQGKSPQLLVYNAKTLAEGVPSRFSGSGSGTQFSLKINSLQPEDFGSYYCQHHYDRPLTFGAGTKLELK
B6: 1-7F4-IgG1 human-mouse chimeric anti-Siglec15 antibody (antibody, V domains shown)
VH: B1 VH
VL: B1 VL
B7: 1-10E5-IgG1 human-mouse chimeric anti-Siglec15 antibody (antibody, V domains shown)
VH: B5 VH
VL: B5 VL
B8: 5G12-IgG1 control antibody (antibody, V domains shown)
VH: QVQLQQPGAELVKPGASVKMSCKASGYTFTSYWITWVIQRPGQGLEWIGDIYCGSDTMHYNEKFKNKATLTVDTSSSTAYMQLSSLTSEDSAVYYCARWWDYGSSYDYFDYWGQGTTLTVSS
VL: DIKMTQSPSSMYASLGERVTITCKASQDINSYLSWFQQKPGKSPKTLIYRANRLVDGVPSRFSGSGSGQDYSLTISSLEYEDMGIYYCLQYDEFPYTFGGGTKLEIKR

How the values were obtained:
Siglec15-ECD-Fc = target: T3, Siglec15-ECD-Fc (human); assay: flow cytometry, single-point blocking by hybridoma supernatant of Siglec15-ECD-Fc (2 ug/ml) binding to LRRC4C-Hek293 cells
T3 construct: Human Siglec15 extracellular domain fused to human IgG1 Fc, expressed in Hek293F; also called Siglec15-ECD-Fc fusion protein
From the text: When the hybridoma cells grew to a certain amount, the Siglec15-His protein was coated onto a 96-well microtiter plate, and the mouse anti-Siglec15 serum was used as a positive control, and the hybridoma supernatant was screened by ELISA to select positive clones. […] The experimental results were shown in FIG. 2, and the specific method was as follows. The inventors conducted subclonal screening of these 10 strains of cells by the limiting dilution method, and finally kept the obtained monoclonal positive cell strains separately, and the supernatant of hybridoma cells was collected for purification by ProteinG.
By using the Lipofectamine system, the human LRRC4C (amino acid sequence set forth in SEQ ID NO: 5) plasmid was transfected into Hek293 cells. After 48 hours, G418 (800 μg/mL) was added to screen for 10-14 days to obtain a cell line stably expressing LRRC4C. Cells were collected, washed once with PBS buffer, blocked with PBS containing 2% FBS for 1 h at room temperature. The hybridoma cell supernatant was added in 50 μl/well; then the diluted Siglec 15-ECD-Fc protein (2 ug/ml) was added in 50 μl/well; mouse IgG was used as a negative control. The cells were incubated at 4° C. for 50 min, then washed three times with PBS buffer containing 0.2% FBS, then diluted with Alexa Fluor 488-labeled goat anti-human IgG in PBS containing 2% FBS, and incubated at 4° C. in the dark for 50 min, and washed three times with PBS buffer containing 0.2% FBS; finally, the cells were resuspended in 200 μL PBS and analyzed by flow cytometry. The average fluorescence reading of 10,000 cells for each sample was recorded, wherein the FITC fluorescence intensity was taken as the abscissa and the cell number as the ordinate, and the voltage parameters were adjusted so that the blank control was at the origin of the coordinate axis. The percentage result of hybridoma cell supernatant for blocking the binding of Siglec15-ECD-Fc protein to LRRC4C was calculated.

Siglec15-ECD-His [1] = target: T1, Siglec15-ECD-His; assay: ELISA, His-tagged human Siglec15 coated
Procedure: (§1) In order to evaluate the cross-species recognition properties of antibodies, the cross recognition of purified 1-15D1, 1-7F4, 14A7 and 1-10E5 monoclonal antibodies with human, cynomolgus monkey and mouse Siglec15 was tested. ELISA test was carried out by coating the microtiter plate with His-tagged human, cynomolgus monkey and mouse Siglec15 proteins and adding 1-15D1, 1-7F4, 14A7 and 1-10E5 antibodies at concentrations of 5000 ng/ml, 1666.7 ng/ml, 555.6 ng/ml, 185.2 ng/ml, 61.7 ng/ml, 20.6 ng/ml, 6.9 ng/ml, 2.3 ng/ml, 0.8 ng/ml, 0.25 ng/ml and 0.1 ng/ml respectively. […] The 14A7 and 1-10E5 antibodies could not only bind human and monkey Siglec15 proteins, but also bind mouse Siglec 15 proteins (FIG. 5). See Table 1 and FIG. 3-FIG. 5 for the EC₅₀ values of affinities for various Siglec15.

[2] = target: T2, His-tagged cynomolgus monkey Siglec15 …; assay: ELISA, His-tagged cynomolgus monkey Siglec15 coated
Procedure: as §1

Siglec15-ECD-His [3] = target: T1, Siglec15-ECD-His; assay: BLI (ForteBio), Siglec15-ECD-His on HIS1K sensor, antibody as analyte
Procedure: In this experiment, a HIS1K biosensor was used to bind the ligand (Sigle15-ECD-His protein) followed by the analyte. Human Sigle15-ECD-His protein was diluted to 5 μg/ml and immobilized on the biosensor to a binding response threshold of 0.3 nm. After the 120s baseline step, the sensors were respectively immersed in the analytes of anti-Siglec15 antibodies 1-7F4-IgG1, 1-15D1-IgG1 and 1-10E5-IgG1 diluted in 2-fold gradient dilution with 0.02% PBST buffer, and the initial antibody concentration was 100 nM, 7 concentration gradients were set respectively. Human IgG1 (hIgG1) (B109801, Baiying Biotechnology Co., Ltd.) was used as a reference control, and 5G12-IgG1 was used as a positive control to conduct an affinity analysis experiment. The binding time of ligand and analyte was 120s, and the dissociation time was 300s. The raw data were imported into the analysis software, the zero concentration control was subtracted, and the reference channel was subtracted to eliminate the volume effect. The affinity data of the antigen and antibody were calculated by the analysis software regression according to the binding curve.

[4] = target: His-tagged mouse Siglec15 protein (mouse); assay: ELISA, His-tagged mouse Siglec15 coated
Procedure: as §1

Binder | binding result (Siglec15-ECD-Fc) | EC50 (Siglec15-ECD-His [1]) | EC50 [2] | Kd (Siglec15-ECD-His [3]) | koff (Siglec15-ECD-His [3]) | kon (Siglec15-ECD-His [3]) | EC50 [4]
B1 | binds | 10 ng/mL | 14.8 ng/mL |  |  |  | 
B2 | binds | 4.98 ng/mL | 9.07 ng/mL |  |  |  | 
B3 |  |  |  | < 0.001 nM | < 1e-07 s⁻¹ | 436000 M⁻¹ s⁻¹ | 
B4 | binds | 8.97 ng/mL | 8.51 ng/mL |  |  |  | 9.99 ng/mL
B5 | binds | 7.21 ng/mL | 9.49 ng/mL |  |  |  | 9.61 ng/mL
B6 |  |  |  | 0.06 nM | 3.42e-05 s⁻¹ | 570000 M⁻¹ s⁻¹ | 
B7 |  |  |  | < 0.001 nM | < 1e-07 s⁻¹ | 1.04e+06 M⁻¹ s⁻¹ | 
B8 |  |  |  | 0.261 nM | 0.000178 s⁻¹ | 683000 M⁻¹ s⁻¹ | 
